Source: patent publication US20250295809A1

Molecular target: HER2 on cancer cell lines (BT-474, SK-BR-3, MDA-MB-361-luc) (human) (UniProt P04626)
Assay: cell-based or functional assay

Emax, BT-474 cell proliferation (CellTiter-Glo 2.0, 4 days): 41.5%
IC50, BT-474 cell proliferation (CellTiter-Glo 2.0, 4 days): 0.125 µg/mL
IC50, SK-BR-3 cell proliferation (CellTiter-Glo 2.0, 4 days): 0.431 µg/mL
Substance: ZW-25 bispecific antibody
